Measurements: paper PMC6791870, “Switch of the interactions between the ribosomal stalk and EF1A in the GTP- and GDP-bound conformations” (Scientific Reports, 2019)
Primed or numbered codes have the meaning given here. Where no end group is shown, it is not given here. FITC′ = fluorescein isothiocyanate label

Assays:
Test in all cases: fluorescence polarisation; FITC-labeled PhoP1C14 peptide (50 nM) mixed with 0-160 µM of the complex of each PhoEF1A mutant, GTP and PfuPelota; 20 mM HEPES-KOH pH 7.6, 10 mM MgCl2, 150 mM KCl, 0.1 mg/ml BSA; 25 °C; nonlinear regression, one site specific binding (GraphPad Prism 6); average of three replicates
Conditions in all cases: both partners purified
[1] = target: T1, PhoEF1A M420S•GTP•PfuPelota complex (Pyrococcus horikoshii | Pyrococcus …, UniProt O59153 1-428, M420S)
T1 construct: elongation factor aEF1A of Pyrococcus horikoshii (PhoEF1A); complex of the EF1A mutant, GTP and PfuPelota; also called M420(I423)S; P. horikoshii aEF1A-M420S
T1 sequence 1: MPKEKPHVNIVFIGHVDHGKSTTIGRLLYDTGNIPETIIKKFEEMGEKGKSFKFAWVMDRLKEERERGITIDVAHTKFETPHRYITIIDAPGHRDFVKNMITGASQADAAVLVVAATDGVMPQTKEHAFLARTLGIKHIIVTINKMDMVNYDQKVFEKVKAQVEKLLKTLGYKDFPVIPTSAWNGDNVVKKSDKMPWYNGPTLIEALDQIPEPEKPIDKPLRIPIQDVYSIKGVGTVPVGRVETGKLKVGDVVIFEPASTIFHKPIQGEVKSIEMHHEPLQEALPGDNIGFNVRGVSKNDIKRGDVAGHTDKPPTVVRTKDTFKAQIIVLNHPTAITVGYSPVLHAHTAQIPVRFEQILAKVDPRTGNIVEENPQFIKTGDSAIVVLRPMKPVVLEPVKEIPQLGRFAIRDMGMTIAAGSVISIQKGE
T1 sequence 2: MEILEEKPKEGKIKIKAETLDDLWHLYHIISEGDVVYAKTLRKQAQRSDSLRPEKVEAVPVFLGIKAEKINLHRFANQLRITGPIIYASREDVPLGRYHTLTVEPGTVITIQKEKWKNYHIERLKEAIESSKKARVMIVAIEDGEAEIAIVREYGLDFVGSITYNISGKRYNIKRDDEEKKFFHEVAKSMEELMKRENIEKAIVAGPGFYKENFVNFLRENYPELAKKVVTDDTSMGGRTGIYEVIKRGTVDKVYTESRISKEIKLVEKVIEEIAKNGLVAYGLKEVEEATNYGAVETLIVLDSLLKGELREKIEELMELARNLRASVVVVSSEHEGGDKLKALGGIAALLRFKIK

[2] = target: T2, PhoEF1A I328S•GTP•PfuPelota complex (Pyrococcus horikoshii | Pyrococcus …, UniProt O59153 1-428, I328S)
T2 construct: elongation factor aEF1A of Pyrococcus horikoshii (PhoEF1A); complex of the EF1A mutant, GTP and PfuPelota; also called I328(F331)S; P. horikoshii aEF1A-I328S
T2 sequence 1: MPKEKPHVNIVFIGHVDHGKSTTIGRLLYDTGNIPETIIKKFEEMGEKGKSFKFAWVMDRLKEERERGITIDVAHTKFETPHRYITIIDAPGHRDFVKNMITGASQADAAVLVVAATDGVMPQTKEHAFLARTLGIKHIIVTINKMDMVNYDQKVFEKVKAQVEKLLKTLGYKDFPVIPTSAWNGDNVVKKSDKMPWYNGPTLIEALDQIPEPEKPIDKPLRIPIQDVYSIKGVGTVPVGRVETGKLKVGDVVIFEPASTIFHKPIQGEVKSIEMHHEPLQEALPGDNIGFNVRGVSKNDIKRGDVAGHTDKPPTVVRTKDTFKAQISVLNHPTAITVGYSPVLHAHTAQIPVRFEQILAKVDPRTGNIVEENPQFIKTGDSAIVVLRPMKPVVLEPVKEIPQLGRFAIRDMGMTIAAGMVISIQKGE
T2 sequence 2: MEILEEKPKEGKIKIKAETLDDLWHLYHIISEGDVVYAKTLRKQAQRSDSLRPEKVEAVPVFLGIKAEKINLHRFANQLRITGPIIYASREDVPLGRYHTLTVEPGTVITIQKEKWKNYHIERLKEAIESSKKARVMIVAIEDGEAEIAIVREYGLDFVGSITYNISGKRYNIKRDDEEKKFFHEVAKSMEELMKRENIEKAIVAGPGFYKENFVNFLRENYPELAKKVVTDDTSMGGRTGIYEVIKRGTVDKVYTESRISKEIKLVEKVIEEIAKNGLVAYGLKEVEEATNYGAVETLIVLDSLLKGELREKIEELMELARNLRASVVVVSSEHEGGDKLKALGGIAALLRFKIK

[3] = target: T3, PhoEF1A R132A•GTP•PfuPelota complex (Pyrococcus horikoshii | Pyrococcus …, UniProt O59153 1-428, R132A)
T3 construct: elongation factor aEF1A of Pyrococcus horikoshii (PhoEF1A); complex of the EF1A mutant, GTP and PfuPelota; also called R132(R140)A; P. horikoshii aEF1A-R132A
T3 sequence 1: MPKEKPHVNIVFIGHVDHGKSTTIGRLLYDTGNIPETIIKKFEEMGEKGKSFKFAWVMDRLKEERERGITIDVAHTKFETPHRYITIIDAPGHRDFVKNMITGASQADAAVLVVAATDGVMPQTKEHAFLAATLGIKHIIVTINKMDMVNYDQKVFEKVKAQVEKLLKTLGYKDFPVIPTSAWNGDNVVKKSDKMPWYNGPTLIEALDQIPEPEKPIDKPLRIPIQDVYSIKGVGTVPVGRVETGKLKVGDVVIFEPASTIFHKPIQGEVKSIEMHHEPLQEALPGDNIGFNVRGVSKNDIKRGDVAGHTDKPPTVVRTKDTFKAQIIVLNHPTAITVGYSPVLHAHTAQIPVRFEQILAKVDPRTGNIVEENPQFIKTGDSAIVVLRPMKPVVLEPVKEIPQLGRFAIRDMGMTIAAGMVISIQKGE
T3 sequence 2: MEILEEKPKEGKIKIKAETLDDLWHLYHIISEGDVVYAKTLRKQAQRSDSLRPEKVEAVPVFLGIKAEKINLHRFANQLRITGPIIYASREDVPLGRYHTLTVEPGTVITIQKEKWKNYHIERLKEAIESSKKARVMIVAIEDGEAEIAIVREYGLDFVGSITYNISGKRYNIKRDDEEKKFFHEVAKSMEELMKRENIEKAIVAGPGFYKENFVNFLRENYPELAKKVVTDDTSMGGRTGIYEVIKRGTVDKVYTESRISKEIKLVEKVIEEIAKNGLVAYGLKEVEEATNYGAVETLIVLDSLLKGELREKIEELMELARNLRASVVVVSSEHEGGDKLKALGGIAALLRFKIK

B1: FITC-labeled C-terminal 14-mer peptide of P. horikoshii aP1 (PhoP1C14) (peptide)
peptide: {FITC′}-SEEEALAGLSALFG
notes: also called FITC-labeled peptide of PhoP1C14; source: synthetic peptide (Hokkaido System Science Co., Ltd)
- Kd [1]: 80.1 ± 8.7 µM
- Kd [2]: 93.3 ± 10.2 µM
- Kd [3]: 87.8 ± 12 µM
